Reference: IntAct's records for PubMed 16278825

B1: Ras-related protein Rab-27A (Homo sapiens), P51159 (parent)
chain: MSDGDYDYLIKFLALGDSGVGKTSVLYQYTDGKFNSKFITTVGIDFREKRVVYRASGPDGATGRGQRIHLQLWDTAGQERFRSLTTAFFRDAMGFLLLFDLTNEQSFLNVRNWISQLQMHAYCENPDIVLCGNKSDLEDQRVVKEEEAIALAEKYGIPYFETSAANGTNISQAIEMLLDLIMKRMERCVDKSWIPEGVVRSNGHASTDQLSEEKEKGACGC
partner: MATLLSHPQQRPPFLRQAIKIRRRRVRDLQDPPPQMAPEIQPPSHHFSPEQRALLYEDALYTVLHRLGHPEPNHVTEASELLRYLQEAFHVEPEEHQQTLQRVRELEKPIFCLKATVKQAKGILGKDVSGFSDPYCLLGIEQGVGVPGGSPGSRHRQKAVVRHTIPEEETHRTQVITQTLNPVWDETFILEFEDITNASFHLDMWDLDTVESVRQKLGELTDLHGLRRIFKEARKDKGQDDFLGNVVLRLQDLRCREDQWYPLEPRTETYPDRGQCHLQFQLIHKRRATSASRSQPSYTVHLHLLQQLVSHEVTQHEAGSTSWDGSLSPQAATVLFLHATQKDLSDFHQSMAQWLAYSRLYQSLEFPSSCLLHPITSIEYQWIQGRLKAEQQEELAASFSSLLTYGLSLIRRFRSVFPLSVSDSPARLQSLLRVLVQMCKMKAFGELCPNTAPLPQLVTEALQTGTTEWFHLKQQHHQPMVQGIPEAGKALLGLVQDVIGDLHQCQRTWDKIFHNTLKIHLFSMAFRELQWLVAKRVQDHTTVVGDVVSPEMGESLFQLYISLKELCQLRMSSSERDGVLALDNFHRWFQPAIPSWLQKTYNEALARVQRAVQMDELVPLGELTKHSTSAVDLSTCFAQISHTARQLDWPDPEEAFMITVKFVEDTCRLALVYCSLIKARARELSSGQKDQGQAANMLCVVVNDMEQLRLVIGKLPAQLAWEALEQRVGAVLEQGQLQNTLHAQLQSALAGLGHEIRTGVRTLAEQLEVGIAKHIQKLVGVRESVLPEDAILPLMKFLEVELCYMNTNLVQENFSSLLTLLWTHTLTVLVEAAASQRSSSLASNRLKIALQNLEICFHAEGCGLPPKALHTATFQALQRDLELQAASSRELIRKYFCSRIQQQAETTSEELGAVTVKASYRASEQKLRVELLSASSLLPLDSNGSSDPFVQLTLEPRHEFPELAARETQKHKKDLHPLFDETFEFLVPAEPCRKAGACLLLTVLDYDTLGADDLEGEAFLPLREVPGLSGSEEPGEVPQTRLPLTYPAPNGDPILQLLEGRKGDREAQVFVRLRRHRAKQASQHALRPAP
B2: Protein unc-13 homolog D (Homo sapiens), Q70J99 (parent)
chain: B1 partner

Variants of: B1
Settings: with un13d_human UNC13D

Row | effect of a mutation on the interaction | Variant
1 | with no effect | Q78L
2 | disrupting interaction strength | A87P
3 | disrupting interaction strength | T23N

Variants of: B2
Settings: with rb27a_human RAB27A

Row | effect of a mutation on the interaction | Variant
4 | disrupting interaction strength | L403P
